Assay results published in publication PMC11007443, “A selection and optimization strategy for single-domain antibodies targeting the PHF6 linear peptide within the tau intrinsically disordered protein” (The Journal of Biological Chemistry, 2024).

Biological target: tau 2N4R (recombinant; 15N-labelled for NMR) (Homo sapiens, UniProt P10636-8)
Assay: cell-based or functional assay
Conditions: not given

Sequence of tau 2N4R (recombinant; 15N-labelled for NMR) (P10636 other isoform, or with tags, fused parts or gaps): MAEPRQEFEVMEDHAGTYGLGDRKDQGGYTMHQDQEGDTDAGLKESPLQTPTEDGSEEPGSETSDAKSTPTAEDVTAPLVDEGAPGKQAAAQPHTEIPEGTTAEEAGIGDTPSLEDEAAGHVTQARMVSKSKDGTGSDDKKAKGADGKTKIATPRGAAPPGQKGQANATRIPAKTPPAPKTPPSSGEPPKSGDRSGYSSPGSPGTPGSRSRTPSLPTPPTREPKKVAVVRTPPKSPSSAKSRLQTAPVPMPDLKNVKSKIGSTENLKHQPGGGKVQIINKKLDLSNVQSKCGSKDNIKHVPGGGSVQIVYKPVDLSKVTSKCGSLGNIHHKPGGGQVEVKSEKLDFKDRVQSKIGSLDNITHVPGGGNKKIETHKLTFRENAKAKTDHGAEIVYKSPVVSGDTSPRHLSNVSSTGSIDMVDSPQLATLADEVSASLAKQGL

| Binder | heparin-induced tau 2N4R aggregation, thioflavin fluorescence intensity ratio between tau with VHH and tau alone; VHH:tau 0.2:1 (46.2%) and 0.5:1 (25%) [%] |
| --- | --- |
| VHH Z70 (VHH, VHH Z70; also in PDB 7QCQ; also called parent VHH; source: E. coli BL21 (DE3), periplasm, purified (IMAC, SEC)) VHH: EVQLQASGGVFVQSGGSLRLSCAASGATSTFDGMGWFRQAPGKEREFVSAISYEQGSYTYYADSVKGRFTISRDNSKNMVYLQMNSLRAEDTATYYCAPAYEGDLYAFDSYGGQGTQVTVSS | 46.2 |

Biological target: T1, biotinylated tau 2N4R (Homo sapiens, UniProt P10636-8, biotin (N-hydroxysuccimide-biotin conjugates, 5 M excess))
T1 construct: tau protein, 2N4R isoform, NCBI NP_005901.2; Expressed from pET15b-tau; also called full-length tau; source: E. coli BL21 (DE3), purified (heating, cation exchange), then biotinylated
T1 sequence (P10636 other isoform, or with tags, fused parts or gaps): as the sequence (P10636 other isoform, or with tags, fused parts or gaps) above
Assay: SPR; biotinylated tau 2N4R captured on a streptavidin chip (500 RU); VHHs as analytes, 0.125-2 uM, single-cycle kinetics; HBS-EP+ buffer; 1:1 Langmuir model; Kd calculated as koff/kon
Conditions: both partners purified

| Binder | Kd [nM] | koff [s⁻¹] | kon [M⁻¹ s⁻¹] |
| --- | --- | --- | --- |
| VHH Z70 (VHH, VHH Z70; also in PDB 7QCQ; also called parent VHH; source: E. coli BL21 (DE3), periplasm, purified (IMAC, SEC)) VHH: EVQLQASGGVFVQSGGSLRLSCAASGATSTFDGMGWFRQAPGKEREFVSAISYEQGSYTYYADSVKGRFTISRDNSKNMVYLQMNSLRAEDTATYYCAPAYEGDLYAFDSYGGQGTQVTVSS | 147.8 ± 0.9 | 0.00267 | 18100 |
| VHH Z70 mutant 5 (T96S) (VHH, as the chain of m1 (VHH Z70); also called Mut5; source: E. coli BL21 (DE3), periplasm, purified (IMAC, SEC)) VHH: EVQLQASGGVFVQSGGSLRLSCAASGATSTFDGMGWFRQAPGKEREFVSAISYEQGSYTYYADSVKGRFTISRDNSKNMVYLQMNSLRAEDTASYYCAPAYEGDLYAFDSYGGQGTQVTVSS | 80.8 ± 1.5 | 0.000882 | 10900 |
| VHH Z70 mutant 3 (R47K) (VHH, as the chain of m1 (VHH Z70); also called Mut3; source: E. coli BL21 (DE3), periplasm, purified (IMAC, SEC)) VHH: EVQLQASGGVFVQSGGSLRLSCAASGATSTFDGMGWFRQAPGKEKEFVSAISYEQGSYTYYADSVKGRFTISRDNSKNMVYLQMNSLRAEDTATYYCAPAYEGDLYAFDSYGGQGTQVTVSS | 80.5 ± 1.5 | 0.0021 | 26000 |
| VHH Z70 mutant 9 (P101S + G115E) (VHH, as the chain of m1 (VHH Z70); also called Mut9; source: E. coli BL21 (DE3), periplasm, purified (IMAC, SEC)) VHH: EVQLQASGGVFVQSGGSLRLSCAASGATSTFDGMGWFRQAPGKEREFVSAISYEQGSYTYYADSVKGRFTISRDNSKNMVYLQMNSLRAEDTATYYCASAYEGDLYAFDSYGEQGTQVTVSS | 51.1 ± 0.6 | 0.00205 | 40100 |
| VHH Z70 mutant 1 (G115E) (VHH, as the chain of m1 (VHH Z70); also called Mut1; source: E. coli BL21 (DE3), periplasm, purified (IMAC, SEC)) VHH: EVQLQASGGVFVQSGGSLRLSCAASGATSTFDGMGWFRQAPGKEREFVSAISYEQGSYTYYADSVKGRFTISRDNSKNMVYLQMNSLRAEDTATYYCAPAYEGDLYAFDSYGEQGTQVTVSS | 22.7 ± 0.5 | 0.00242 | 107000 |
| VHH Z70 mutant 12 (S23C + G115E) (VHH, as the chain of m1 (VHH Z70); also called Mut12; source: E. coli BL21 (DE3), periplasm, purified (IMAC, SEC)) VHH: EVQLQASGGVFVQSGGSLRLCCAASGATSTFDGMGWFRQAPGKEREFVSAISYEQGSYTYYADSVKGRFTISRDNSKNMVYLQMNSLRAEDTATYYCAPAYEGDLYAFDSYGEQGTQVTVSS | 61.2 ± 0.6 | 0.00207 | 33900 |

Next, values leading:

| Kd [nM] | koff [s⁻¹] | kon [M⁻¹ s⁻¹] | Binder |
| --- | --- | --- | --- |
| 74.3 ± 0.8 | 0.0014 | 18800 | VHH Z70 mutant 14 (VHH, as the chain of m1 (VHH Z70); The text says only that G115E is combined with additional substitutions in mutant 14; also called Mut14; source: E. coli BL21 (DE3), periplasm, purified (IMAC, SEC)) VHH: EVQLQASGGVFVQSGGSLRLSCAASGATSIFDGMGWFRQAPGKEREFVSAISYGQGSYTYYADSVKGRFTISRDNSKNMVYLQMNSLRAEDTATYYCAPAYEGDLYAFDSYGEQGTQVTVSS |
| 42.5 ± 0.7 | 0.00277 | 65300 | VHH Z70 mutant 15 (R90G + P101S + G114E) (VHH, as the chain of m1 (VHH Z70); also called Mut15; source: E. coli BL21 (DE3), periplasm, purified (IMAC, SEC)) VHH: EVQLQASGGVFVQSGGSLRLSCAASGATSTFDGMGWFRQAPGKEREFVSAISYEQGSYTYYADSVKGRFTISRDNSKNMVYLQMNSLGAEDTATYYCASAYEGDLYAFDSYEGQGTQVTVSS |
| 41.8 ± 0.7 | 0.00089 | 21300 | VHH Z70 mutant 20 (R47K + G115E) (VHH, as the chain of m1 (VHH Z70); Generated by the authors, not found in the screen; also called Mut20; source: E. coli BL21 (DE3), periplasm, purified (IMAC, SEC)) VHH: EVQLQASGGVFVQSGGSLRLSCAASGATSTFDGMGWFRQAPGKEKEFVSAISYEQGSYTYYADSVKGRFTISRDNSKNMVYLQMNSLRAEDTATYYCAPAYEGDLYAFDSYGEQGTQVTVSS |
